Values of other authors as cited in paper PMC11346460.

Molecular target: RIG-I (Homo sapiens) (UniProt O95786)
Sequence of UniProt O95786 (O95786 whole entry): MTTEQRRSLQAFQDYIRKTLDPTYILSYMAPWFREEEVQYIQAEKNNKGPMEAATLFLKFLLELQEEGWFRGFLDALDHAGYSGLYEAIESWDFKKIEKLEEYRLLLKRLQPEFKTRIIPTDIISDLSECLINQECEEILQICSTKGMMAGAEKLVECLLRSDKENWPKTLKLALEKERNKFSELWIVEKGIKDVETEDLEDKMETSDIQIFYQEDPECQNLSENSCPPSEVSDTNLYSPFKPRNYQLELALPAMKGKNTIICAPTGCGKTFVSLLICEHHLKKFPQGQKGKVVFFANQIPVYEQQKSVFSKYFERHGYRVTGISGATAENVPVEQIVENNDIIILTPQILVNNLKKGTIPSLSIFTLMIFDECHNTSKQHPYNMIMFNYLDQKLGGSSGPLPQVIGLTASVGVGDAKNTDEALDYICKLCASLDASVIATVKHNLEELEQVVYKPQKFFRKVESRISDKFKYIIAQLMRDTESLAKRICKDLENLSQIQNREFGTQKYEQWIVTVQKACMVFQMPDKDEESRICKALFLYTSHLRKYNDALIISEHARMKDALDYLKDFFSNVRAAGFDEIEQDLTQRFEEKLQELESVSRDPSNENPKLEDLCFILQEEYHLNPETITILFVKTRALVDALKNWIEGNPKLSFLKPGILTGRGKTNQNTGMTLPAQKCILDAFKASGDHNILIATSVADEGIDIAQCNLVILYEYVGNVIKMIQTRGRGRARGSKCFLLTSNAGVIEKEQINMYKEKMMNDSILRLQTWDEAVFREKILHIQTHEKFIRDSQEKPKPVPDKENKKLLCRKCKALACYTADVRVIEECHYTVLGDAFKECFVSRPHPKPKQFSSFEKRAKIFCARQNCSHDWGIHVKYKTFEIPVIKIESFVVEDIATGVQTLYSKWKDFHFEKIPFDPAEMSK

Substance: RIPLET (from UniProt Q8IUD6)
- Kd: 6.6 nM
